Consider 15 molecules from patent EP2385124A2 (Arbor Vita Corporation, dated 2011).

No end group written: not given here. *: point of attachment. Biotin = O=C1N[C@H]2[C@H](CS[C@H]2CCCCC(=O)*)N1

Test [1] deals with T1, GST-KIAA0303 PDZ domain fusion protein (UniProt O15021 1139-1229).
T1 construct: domain: PDZ domain 1 (of 1); AA numbers count on the GenBank entry; also called K303; not shown: glutathione-S transferase (GST) as encoded by vector pGEX-3X (Pharmacia)
T1 sequence: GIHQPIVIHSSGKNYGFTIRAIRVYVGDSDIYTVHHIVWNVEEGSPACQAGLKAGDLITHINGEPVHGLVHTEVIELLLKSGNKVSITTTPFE
Nature of the test: A/G plate assay (TABLE 2).

The target in test [2] is T2, GST-MPP1 PDZ domain fusion protein (UniProt Q00013 67-152).
T2 construct: domain: PDZ domain 1 (of 1); AA numbers count on the GenBank entry; also called 55 Kd erythrocyte membrane protein; not shown: glutathione-S transferase (GST) as encoded by vector pGEX-3X (Pharmacia)
T2 sequence: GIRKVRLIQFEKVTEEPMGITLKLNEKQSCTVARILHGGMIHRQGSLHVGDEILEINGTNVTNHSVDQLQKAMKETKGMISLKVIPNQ
Nature of the test: A/G plate assay (TABLE 2).

The target in test [3] is T3, GST-TIAM1 PDZ domain fusion protein (UniProt Q13009 844-931).
T3 construct: domain: PDZ 1 (of 1); AA numbers count on the GenBank entry; also called T-lymphoma invasion and metastasis inducing protein 1; not shown: glutathione-S transferase (GST) as encoded by vector pGEX-3X (Pharmacia)
T3 sequence (Q13009 other isoform, or with tags, fused parts or gaps): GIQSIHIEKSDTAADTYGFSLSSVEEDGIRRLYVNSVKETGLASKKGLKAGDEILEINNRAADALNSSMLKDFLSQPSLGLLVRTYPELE
Nature of the test: A/G plate assay (TABLE 2).

In test [4] the target is T4, GST-PSD95 PDZ domains 1-3 fusion protein (human, UniProt P78352 58-395).
T4 construct: domain: PDZ domains 1-3 (of 3); AA numbers count on the GenBank entry; not shown: glutathione-S transferase (GST) as encoded by vector pGEX-3X (Pharmacia)
T4 sequence (P78352 other isoform, or with tags, fused parts or gaps): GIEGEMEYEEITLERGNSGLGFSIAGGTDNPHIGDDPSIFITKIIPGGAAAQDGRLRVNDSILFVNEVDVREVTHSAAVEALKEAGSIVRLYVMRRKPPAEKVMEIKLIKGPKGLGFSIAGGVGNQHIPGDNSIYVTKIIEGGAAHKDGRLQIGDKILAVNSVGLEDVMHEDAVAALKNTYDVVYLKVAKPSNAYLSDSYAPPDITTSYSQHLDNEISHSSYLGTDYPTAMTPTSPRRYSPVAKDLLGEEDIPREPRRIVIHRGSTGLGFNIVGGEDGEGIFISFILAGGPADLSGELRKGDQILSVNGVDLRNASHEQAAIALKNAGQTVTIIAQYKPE
Nature of the test: A/G plate assay (TABLE 2).

The target of test [5] is T5, GST-AF6 PDZ domain fusion protein (UniProt P55196 1001-1093).
T5 construct: domain: PDZ domain 1 (of 1); AA numbers count on the GenBank entry; also called af-6 protein; not shown: glutathione-S transferase (GST) as encoded by vector pGEX-3X (Pharmacia)
T5 sequence: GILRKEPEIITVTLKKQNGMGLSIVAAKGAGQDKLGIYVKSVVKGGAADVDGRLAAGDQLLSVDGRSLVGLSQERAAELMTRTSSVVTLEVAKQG
Nature of the test: A/G plate assay (TABLE 2).

For test [6], the target named is T4, GST-PSD95 PDZ domains 1-3 fusion protein. Nature of the test: G assay, biotinylated peptide titrated on plate-bound GST-PDZ, saturation fit (apparent affinity).
The target in test [7] is T6, GST-KIAA0561 PDZ domain fusion protein (UniProt O60307 948-1038).
T6 construct: domain: PDZ domain 1 (of 1); AA numbers count on the GenBank entry; also called K561; not shown: glutathione-S transferase (GST) as encoded by vector pGEX-3X (Pharmacia)
T6 sequence: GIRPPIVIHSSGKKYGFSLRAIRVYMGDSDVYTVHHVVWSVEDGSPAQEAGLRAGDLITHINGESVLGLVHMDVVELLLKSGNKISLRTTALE
Nature of the test: A/G plate assay (TABLE 2).

For test [8], the target named is T7, GST-prIL16 PDZ domains 1-2 fusion protein (UniProt Q14005 1111-1324).
T7 construct: domain: PDZ domain 1-2 (of 2); AA numbers count on the GenBank entry; also called putative interleukin 16 precursor; not shown: glutathione-S transferase (GST) as encoded by vector pGEX-3X (Pharmacia)
T7 sequence: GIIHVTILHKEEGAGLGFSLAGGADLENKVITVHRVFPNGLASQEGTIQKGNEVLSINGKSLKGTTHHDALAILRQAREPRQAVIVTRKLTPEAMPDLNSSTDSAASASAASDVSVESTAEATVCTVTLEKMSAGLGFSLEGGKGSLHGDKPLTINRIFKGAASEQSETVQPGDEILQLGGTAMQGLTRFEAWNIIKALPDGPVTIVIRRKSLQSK
Nature of the test: A/G plate assay (TABLE 2).

For test [9], the target named is T8, GST-PTN-4 PDZ domain fusion protein (UniProt P29074 516-604).
T8 construct: domain: PDZ domain 1 (of 1); AA numbers count on the GenBank entry; also called protein-tyrosine phosphatase meg1; not shown: glutathione-S transferase (GST) as encoded by vector pGEX-3X (Pharmacia)
T8 sequence: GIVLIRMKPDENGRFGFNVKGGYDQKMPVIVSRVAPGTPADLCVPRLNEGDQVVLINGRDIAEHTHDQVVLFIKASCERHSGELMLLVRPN
Nature of the test: A/G plate assay (TABLE 2).

B1: VCAM1 C-terminal PL peptide AA17L (peptide)
peptide: Biotin-ARKANMKGSYSLVEAQKSKV
As to B1, the binding result in test [1], in [2] and in test [3] was “binds” in each case.

B2: CDW128B (IL8RB) C-terminal PL peptide AA29.2L (peptide)
peptide: Biotin-KDSRPSFVGSSSGHTSTTL
For the molecule B2, the binding result in [4] was “binds”.

B3: Neurexin C-terminal PL peptide AA38L (peptide)
peptide: Biotin-SSAKSSNKNKKNKDKEYYV
Take B3: the binding result in test [2] is given as “binds”.

B4: CD83 C-terminal PL peptide AA47L (peptide)
peptide: Biotin-VTSPNKHLGLVTPHKTELV
Turning to B4, in [4], the binding result is “binds”.

B5: DNAM-1 C-terminal PL peptide AA22L (peptide)
peptide: Biotin-TREDIYVNYPTFSRRPKTRV
For the molecule B5, the binding result in test [4] and in [5] was “binds” in each case.

B6: CD95 (Fas) C-terminal PL peptide AA13L (peptide)
peptide: Biotin-KDITSDSENSNFRNEIQSLV
notes: also called AAI3L
Consider B6, for which, in test [6], the Kd stood at 85 µM.

B7: Glycophorin C C-terminal PL peptide AA37L (peptide)
peptide: Biotin-QGDPALQDAGDSSRKEYFI
notes: also called GC
Regarding B7, the binding result is “binds” in test [4], “binds” in test [5] and “no binding” in test [2].

B8: CD34 C-terminal PL peptide AA7L (peptide)
peptide: Biotin-QATSRNGHSARQHVVADTEL
Regarding B8, the binding result in test [4] is reported as “binds”.

B9: CD3n C-terminal PL peptide AA4L (peptide)
peptide: Biotin-SVFSIPTLWSPWPPSSSSQL
notes: also called CD3-eta; CD3-η
B9: in test [4], the binding result is reported as “binds”.

B10: CD46 (Form 1) C-terminal PL peptide AA10L (peptide)
peptide: Biotin-KKGTYLTDETHREVKFTSL
With B10, in [4], the binding result is on record as “binds”.

B11: KV1.3 C-terminal PL peptide AA33L (peptide)
peptide: Biotin-TTNNNPNSAVNIKKIFTDV
In the case of B11, the binding result in test [4] is “binds”.

B12: FasL C-terminal PL peptide AA23L-M (peptide)
peptide: Biotin-SSKSKSSEESQTFFGLYKL
notes: also called FAS Ligand
As to B12, the binding result in [7] was “binds”.

B13: CD44 C-terminal PL peptide AA9L (peptide)
peptide: Biotin-QFMTADETRNLQNVDMKIGV
With B13, the binding result in test [8] and in test [2] was “binds” each time.

B14: CD138 C-terminal PL peptide AA18L (peptide)
peptide: Biotin-PKQANGGAYQKPTKQEEFYA
For the molecule B14, the binding result in test [3] is “binds”.

B15: CDW125 (IL5R) C-terminal PL peptide AA28L (peptide)
peptide: Biotin-EVICYIEKPGVETLEDSVF
Regarding B15, the binding result in test [9] is recorded as “binds”.
